Data from patent publication US20050032064, “Method and device for identifying substances capable of modulating adipocyte differentiation” (published 2005).

Columns and labels:
[1] = target: PPAR GAMMA / RXR ALPHA heterodimer (Mus musculus, UniProt P37238;P28700 P37238:1-505,P28700:1-467); assay: EMSA; competed by excess (10 or 100-fold tested) unlabeled Rev-DR2; conditions: tags: pSG5-mPPAR-gamma and pSG5-mRXR-alpha, rabbit reticulocyte lysate; label: end-labeled
Method: Binding competition experiments were performed by adding a 0, 10 or 100-fold excess of unlabeled Rev-DR2 oligonucleotide.
(§1) The pSG5-mPPAR-gamma, pSG5-mRXR-alpha and pSG5-hRev-erb alpha plasmids were transcribed in vitro with T7 polymerase and translated with the rabbit reticulocyte lysate system (Promega, Madison, Wis., USA). Gel shift experiments with REV-ERB ALPHA, PPAR GAMMA and/or RXR ALPHA proteins were carried out as previously described (Gervois, P. et al., Molecular Endocrinology 1999, 13(3): 400-409; Vu-Dac, N. et al., J. Biol. Chem. 1994, 269(49): 31012-31018). For the competition experiments, increasing quantities of the indicated unlabeled probe were added immediately before adding the labeled oligonucleotide. The complexes were resolved in 5% polyacrylamide gels using […] buffer (90 mM borate, 2.5 mM EDTA, pH 8.3) at room temperature. Gels were dried and exposed overnight at −70° C. on Rayon-X film (XOMAT-AR, Eastman Kodak, Rochester, N.Y., USA).
Lastly, binding of the PPAR GAMMA receptor to the Rev-DR2 site was studied. A test to measure electrophoretic mobility (gel shift or electrophoretic mobility shift assay) was carried out using PPAR GAMMA and RXR ALPHA proteins synthesized in vitro. […]

RXR ALPHA = target: T1, RXR ALPHA (Mus musculus, UniProt P28700 P28700:1-467); assay: EMSA; RXR alpha alone; conditions: tags: pSG5-mRXR-alpha, rabbit reticulocyte lysate; label: end-labeled
T1 sequence: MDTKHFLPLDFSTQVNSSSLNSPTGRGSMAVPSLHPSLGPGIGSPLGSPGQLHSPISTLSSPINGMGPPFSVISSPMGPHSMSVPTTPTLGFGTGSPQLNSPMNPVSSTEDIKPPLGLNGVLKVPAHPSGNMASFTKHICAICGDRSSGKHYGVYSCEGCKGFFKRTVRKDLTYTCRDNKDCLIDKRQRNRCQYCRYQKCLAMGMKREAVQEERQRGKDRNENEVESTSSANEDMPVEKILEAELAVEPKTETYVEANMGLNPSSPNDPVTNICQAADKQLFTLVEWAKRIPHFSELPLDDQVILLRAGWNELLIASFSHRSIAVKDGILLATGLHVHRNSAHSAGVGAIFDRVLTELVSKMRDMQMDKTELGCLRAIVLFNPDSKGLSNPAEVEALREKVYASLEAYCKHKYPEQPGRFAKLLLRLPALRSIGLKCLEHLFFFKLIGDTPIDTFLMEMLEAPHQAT
Method: (§2) The electrophoretic gel shift studies were carried out by using the indicated end-labeled oligonucleotides, in the presence of the murine PPAR GAMMA receptor, murine RXR ALPHA receptor, human REV-ERB ALPHA receptor produced by reticulocyte lysate, or non-programmed lysates (lysate). Binding competition experiments were performed by adding a 0, 10 or 100-fold excess of unlabeled Rev-DR2 oligonucleotide.
as §1
(§3) Lastly, binding of the PPAR GAMMA receptor to the Rev-DR2 site was studied. […]

PPAR GAMMA = PPAR GAMMA (Mus musculus, UniProt P37238 P37238:1-505); assay: EMSA; PPAR gamma alone; conditions: tags: pSG5-mPPAR-gamma, rabbit reticulocyte lysate; label: end-labeled
Method: as §2, §1, §3

REV-ERB ALPHA (NR1D1) = target: T2, REV-ERB ALPHA (NR1D1) (Homo sapiens, UniProt P20393 SEQ:1-614); assay: EMSA; binds as monomer and homodimer; conditions: tags: expressed from pSG5-hRev-erb alpha, rabbit reticulocyte lysate; label: end-labeled
T2 sequence: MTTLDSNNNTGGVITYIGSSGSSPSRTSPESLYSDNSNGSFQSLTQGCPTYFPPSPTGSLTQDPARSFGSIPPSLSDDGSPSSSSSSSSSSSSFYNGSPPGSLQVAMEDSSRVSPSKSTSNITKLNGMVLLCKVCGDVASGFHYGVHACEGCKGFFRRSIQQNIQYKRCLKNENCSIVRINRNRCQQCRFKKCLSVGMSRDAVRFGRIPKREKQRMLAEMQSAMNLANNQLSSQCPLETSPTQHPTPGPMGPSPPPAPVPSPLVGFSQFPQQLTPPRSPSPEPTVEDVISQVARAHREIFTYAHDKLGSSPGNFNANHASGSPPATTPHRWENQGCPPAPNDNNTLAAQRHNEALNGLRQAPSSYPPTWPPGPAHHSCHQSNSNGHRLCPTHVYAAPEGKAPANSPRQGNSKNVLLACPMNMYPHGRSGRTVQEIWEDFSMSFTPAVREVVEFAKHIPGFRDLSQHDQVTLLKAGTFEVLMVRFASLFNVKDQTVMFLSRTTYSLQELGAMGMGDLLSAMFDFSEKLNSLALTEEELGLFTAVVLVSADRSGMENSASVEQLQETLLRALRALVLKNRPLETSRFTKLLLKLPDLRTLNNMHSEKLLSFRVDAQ
Method: as §2, §1, §3

B1: Rev-DR2 (dsDNA)
DNA 1: AAAAGTGTGTCACTGGGGCA
DNA 2: TGCCCCAGTGACACACTTTT
- binding result [1]: binds
- binding result (RXR ALPHA): no binding
- binding result (PPAR GAMMA): no binding
- binding result (REV-ERB ALPHA (NR1D1)): binds
